Patent publication US20220061310A1

Biological target: PDGF receptor PDGFRβ on the surface of 293-SL/PR cells (transformed 293T cell line)
Assay: cell-based or functional assay

bioactivity by luciferase assay in 293-SL/PR reporter cells; PDGF at 30 ng/mL lyophilized with 3 mg/mL collagen (experimental group): 310000 RLU/sec
bioactivity by luciferase assay in 293-SL/PR reporter cells; PDGF solution (control group) at 120 ng/mL: 340000 RLU/sec
Substance: recombinant human PDGF B (rhPDGF B) (from UniProt P01127 82-190) (ligand)
